This note sets out measurements from patent publication US20250092151A1 (ALTRUBIO, published 2025).

In test [1] the target is T1, human P-selectin glycoprotein ligand-1 (PSGL-1), expressed on Sp2/0-hPSGL-1 cells (human, UniProt Q14242 42-412).
T1 construct: Sp2/0 cells transfected with human PSGL-1; also called human PSGL-1; SELPLG
T1 sequence: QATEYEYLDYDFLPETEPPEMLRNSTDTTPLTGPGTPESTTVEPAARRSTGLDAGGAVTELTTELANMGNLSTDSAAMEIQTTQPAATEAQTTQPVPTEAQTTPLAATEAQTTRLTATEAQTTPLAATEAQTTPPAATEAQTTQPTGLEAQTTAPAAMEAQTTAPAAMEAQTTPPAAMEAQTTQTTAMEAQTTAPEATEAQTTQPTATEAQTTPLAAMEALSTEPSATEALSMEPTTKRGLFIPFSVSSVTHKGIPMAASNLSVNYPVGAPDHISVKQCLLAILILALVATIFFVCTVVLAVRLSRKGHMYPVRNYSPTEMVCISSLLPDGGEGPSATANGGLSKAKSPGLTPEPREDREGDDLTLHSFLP
The experiment in a line: flow cytometry on Sp2/0-hPSGL-1 cells, antibody at 3 µg/mL. As for the experimental part: (§1) Sp2/0 cells transfected with human PSGL-1 (Sp2/0-hPSGL1) were used as the PSGL-1 expressing cell line. Sp2/0-hPSGL1 cells were centrifuged at 1200 rpm for 5 min. The cell pellets were resuspended in FACS buffer (PBS containing 1% FBS) and pipetted into 96 well plate (1×10⁵ cells/well). To each well was added 100 μl of supernatants containing humanized 15A7H (h15A7H)/tetravalent antibodies, and these were incubated for 60 min at 4° C. The cells were washed three times with cold FACS buffer and then incubated with 100 μl of Mouse Anti-Human IgG₄ pFc′-PE (SouthernBiotech Cat. no. 9190-09) at 1 μg/ml concentration for 60 min at 4° C. Subsequently, the cells were washed three times with cold FACS buffer and analyzed by FACS analysis. All flow cytometric analyses were performed on a BD-LSR flow cytometer (Becton Dickinson) using the Cell Quest software.
(§2) The binding ability of h15A7H tetravalent antibodies was evaluated in human PSGL-1 SP2/O cells. The h15A7H tetravalent antibody bound positively to the SP2/O-hPSGL-1, but not to parental SP2/O cell lacking of hPSGL-1 antigen (Table A below). Additionally, wild type h15A7H and all of h15A7H tetravalent antibodies gave similar binding activity on SP2/O-hPSGL-1 (Table A).
On the technique in general: In flow cytometry, cells or beads pass a laser one at a time.

Test [2] has as its target T1, human P-selectin glycoprotein ligand-1 …. The experiment in a line: cell-based or functional assay.
Test [3] shares this target. The experiment in a line: flow cytometry on Sp2/0-hPSGL-1 cells, antibody at 1 µg/mL. As for the experimental part:
as §1, §2

Test [4] has the same target. The experiment in a line: flow cytometry on Sp2/0-hPSGL-1 cells, antibody at 0.1 µg/mL. As for the experimental part:
as §1, §2

Test [5] shares this target. The experiment in a line: flow cytometry on Sp2/0-hPSGL-1 cells, antibody at 0.3 µg/mL. As for the experimental part:
as §1, §2

B1: h15A7H scFv4-crIgG4p (antibody)
light: EVQLVESGGGLVQPGGSLRLSCAASGFTFSSFGMHWVRQAPGKCLEWVAYINGGSSTIFYANAVKGRFTISRDNAKNTLYLQMNSLRAEDTAVYYCARYASYGGGAMDYWGQGTLVTVSSGGGGSGGGGSGGGGSGGGGSGGGGSDIQMTQSPSSLSASVGDRVTITCRSSQSIVHNDGNTYFEWYQQKPGKAPKLLIYKVSNRFSGVPSRFSGSGSGTHFTLTISSLQPEDFATYYCFQGSYVPLTFGCGTKVEIKRTVAAPSVFIFPPSDEQLKSGTASVVCLLNNFYPREAKVQWKVDNALQSGNSQESVTEQDSKDSTYSLSSTLTLSKADYEKHKVYACEVTHQGLSSPVTKSFNRGEC
heavy: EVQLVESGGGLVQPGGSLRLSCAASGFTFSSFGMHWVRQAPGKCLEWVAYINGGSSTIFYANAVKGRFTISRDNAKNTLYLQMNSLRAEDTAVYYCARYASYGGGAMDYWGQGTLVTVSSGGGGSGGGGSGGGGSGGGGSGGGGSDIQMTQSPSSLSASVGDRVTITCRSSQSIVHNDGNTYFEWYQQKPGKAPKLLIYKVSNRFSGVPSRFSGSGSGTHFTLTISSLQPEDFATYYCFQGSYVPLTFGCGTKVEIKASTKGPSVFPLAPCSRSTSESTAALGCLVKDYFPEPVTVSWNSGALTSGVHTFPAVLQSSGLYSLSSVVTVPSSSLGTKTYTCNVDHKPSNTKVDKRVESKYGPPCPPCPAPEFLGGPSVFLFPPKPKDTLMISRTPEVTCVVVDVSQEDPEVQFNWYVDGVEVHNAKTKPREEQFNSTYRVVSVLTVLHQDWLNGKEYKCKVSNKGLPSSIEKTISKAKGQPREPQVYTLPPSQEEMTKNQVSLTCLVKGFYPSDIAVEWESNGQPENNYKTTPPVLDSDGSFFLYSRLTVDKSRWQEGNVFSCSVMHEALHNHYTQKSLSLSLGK
notes: Tetravalent: four v2 scFv units fused without a linker to the N-termini of the kappa and IgG4p constant regions
For B1, the mean fluorescence intensity was 5940 MFI in test [1], 6010 MFI in test [3], 2640 MFI in test [4] and 4640 MFI in test [5]. In addition, the “Apoptosis % (background subtracted, n = 4), mean, at 0.0625 µg/mL, SP2/O-hPSGL-1 cells, Annexin V/PI” value in test [2] is 1.75%. Moreover, the “Apoptosis % (background subtracted, n = 4), mean, at 0.5 µg/mL, SP2/O-hPSGL-1 cells, Annexin V/PI” value in test [2] worked out at 35.8%.

B2: h15A7H scFv2-LC-IgG4p (antibody)
light: EVQLVESGGGLVQPGGSLRLSCAASGFTFSSFGMHWVRQAPGKCLEWVAYINGGSSTIFYANAVKGRFTISRDNAKNTLYLQMNSLRAEDTAVYYCARYASYGGGAMDYWGQGTLVTVSSGGGGSGGGGSGGGGSGGGGSGGGGSDIQMTQSPSSLSASVGDRVTITCRSSQSIVHNDGNTYFEWYQQKPGKAPKLLIYKVSNRFSGVPSRFSGSGSGTHFTLTISSLQPEDFATYYCFQGSYVPLTFGCGTKVEIKASTGSGGGGSDIQMTQSPSSLSASVGDRVTITCRSSQSIVHNDGNTYFEWYQQKPGKAPKLLIYKVSNRFSGVPSRFSGSGSGTHFTLTISSLQPEDFATYYCFQGSYVPLTFGQGTKVEIKRTVAAPSVFIFPPSDEQLKSGTASVVCLLNNFYPREAKVQWKVDNALQSGNSQESVTEQDSKDSTYSLSSTLTLSKADYEKHKVYACEVTHQGLSSPVTKSFNRGEC
heavy: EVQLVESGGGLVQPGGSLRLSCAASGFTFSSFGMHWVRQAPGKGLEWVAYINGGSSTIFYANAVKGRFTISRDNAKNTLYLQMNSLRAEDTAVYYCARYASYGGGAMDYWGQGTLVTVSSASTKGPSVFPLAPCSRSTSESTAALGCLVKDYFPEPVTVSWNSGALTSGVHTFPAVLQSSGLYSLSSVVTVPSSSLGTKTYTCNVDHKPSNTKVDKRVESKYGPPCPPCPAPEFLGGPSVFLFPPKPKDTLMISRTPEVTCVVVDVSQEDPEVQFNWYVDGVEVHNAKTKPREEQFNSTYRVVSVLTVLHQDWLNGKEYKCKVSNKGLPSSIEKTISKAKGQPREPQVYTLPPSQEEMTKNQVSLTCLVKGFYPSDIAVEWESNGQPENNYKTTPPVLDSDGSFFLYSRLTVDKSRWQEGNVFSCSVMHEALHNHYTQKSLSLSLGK
notes: Tetravalent: a v2 scFv fused to the N-terminus of each kappa light chain of h15A7H IgG4p
Regarding B2, the mean fluorescence intensity in test [1] is 4380 MFI; in test [3] it was 5740 MFI; in test [4], 5540 MFI; in test [5], 7060 MFI. Also, the “Apoptosis % (background subtracted, n = 4), mean, at 0.0625 µg/mL, SP2/O-hPSGL-1 cells, Annexin V/PI” value in test [2] was 15.5%. In addition, the “Apoptosis % (background subtracted, n = 4), mean, at 0.5 µg/mL, SP2/O-hPSGL-1 cells, Annexin V/PI” value in test [2] is 23.8%.

B3: h15A7H LC-scFv2-IgG4p (antibody)
light: DIQMTQSPSSLSASVGDRVTITCRSSQSIVHNDGNTYFEWYQQKPGKAPKLLIYKVSNRFSGVPSRFSGSGSGTHFTLTISSLQPEDFATYYCFQGSYVPLTFGQGTKVEIKRTVAAPSVFIFPPSDEQLKSGTASVVCLLNNFYPREAKVQWKVDNALQSGNSQESVTEQDSKDSTYSLSSTLTLSKADYEKHKVYACEVTHQGLSSPVTKSFNRGECGGGGSGGGGSEVQLVESGGGLVQPGGSLRLSCAASGFTFSSFGMHWVRQAPGKCLEWVAYINGGSSTIFYANAVKGRFTISRDNAKNTLYLQMNSLRAEDTAVYYCARYASYGGGAMDYWGQGTLVTVSSGGGGSGGGGSGGGGSGGGGSGGGGSDIQMTQSPSSLSASVGDRVTITCRSSQSIVHNDGNTYFEWYQQKPGKAPKLLIYKVSNRFSGVPSRFSGSGSGTHFTLTISSLQPEDFATYYCFQGSYVPLTFGCGTKVEIKAAAHHHHHHHHHH
heavy: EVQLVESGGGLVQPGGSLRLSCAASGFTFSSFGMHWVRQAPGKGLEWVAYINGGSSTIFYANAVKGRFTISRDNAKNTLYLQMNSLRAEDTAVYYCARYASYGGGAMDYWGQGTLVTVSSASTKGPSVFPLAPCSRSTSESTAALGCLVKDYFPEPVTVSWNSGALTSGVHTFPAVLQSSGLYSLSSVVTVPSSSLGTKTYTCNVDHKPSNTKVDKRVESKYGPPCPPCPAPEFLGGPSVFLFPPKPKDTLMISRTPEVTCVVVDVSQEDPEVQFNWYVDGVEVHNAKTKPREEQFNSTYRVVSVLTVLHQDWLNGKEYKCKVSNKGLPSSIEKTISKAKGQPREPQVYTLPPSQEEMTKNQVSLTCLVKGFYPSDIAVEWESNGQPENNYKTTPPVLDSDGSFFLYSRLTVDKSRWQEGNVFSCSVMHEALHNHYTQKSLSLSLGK
notes: Tetravalent: a v2 scFv fused to the C-terminus of each kappa light chain of h15A7H IgG4p
For the molecule B3, the mean fluorescence intensity in test [1] worked out at 6030 MFI; in test [3], 5820 MFI; in test [4] it was 3040 MFI; in test [5], 3480 MFI. In addition, the “Apoptosis % (background subtracted, n = 4), mean, at 0.0625 µg/mL, SP2/O-hPSGL-1 cells, Annexin V/PI” value in test [2] stood at 0.5%. In addition, in test [2], the “Apoptosis % (background subtracted, n = 4), mean, at 0.5 µg/mL, SP2/O-hPSGL-1 cells, Annexin V/PI” value amounted to 18%.

B4: h15A7H (antibody, IgG4, V domains shown)
VH: EVQLVESGGGLVQPGGSLRLSCAASGFTFSSFGMHWVRQAPGKGLEWVAYINGGSSTIFYANAVKGRFTISRDNAKNTLYLQMNSLRAEDTAVYYCARYASYGGGAMDYWGQGTLVTVSS
VL: DIQMTQSPSSLSASVGDRVTITCRSSQSIVHNDGNTYFEWYQQKPGKAPKLLIYKVSNRFSGVPSRFSGSGSGTHFTLTISSLQPEDFATYYCFQGSYVPLTFGQGTKVEIK
notes: Bivalent humanized IgG4 kappa antibody with the S228P hinge mutation; also called humanized 15A7H; wild type h15A7H; not shown: human immunoglobulin kappa light chain constant region
B4: the mean fluorescence intensity in test [1] was found to be 4670 MFI; in test [3], 6400 MFI; in test [4], 3410 MFI; in test [5] it was 5940 MFI. The “Apoptosis % (background subtracted, n = 4), mean, at 0.0625 µg/mL, SP2/O-hPSGL-1 cells, Annexin V/PI” value in test [2] was 1.5%. Also, the “Apoptosis % (background subtracted, n = 4), mean, at 0.5 µg/mL, SP2/O-hPSGL-1 cells, Annexin V/PI” value in test [2] was 2.75%.
